{
  "source": "paper PMC3572051",
  "about": "“The Budding Yeast Cdc48^Shp1 Complex Promotes Cell Cycle Progression by Positive Regulation of Protein Phosphatase 1 (Glc7)” (PLoS ONE, 2013)",
  "molecular_target": "T1, Shp1^3HA (S. cerevisiae, UniProt P34223 1-423)",
  "T1 construct": "Shp1 (Ubx1), S. cerevisiae; source: S. cerevisiae DF5, chromosomal fusion SHP1^3HA::klTRP1, endogenous expression level, in lysate",
  "T1 sequence (looked up)": "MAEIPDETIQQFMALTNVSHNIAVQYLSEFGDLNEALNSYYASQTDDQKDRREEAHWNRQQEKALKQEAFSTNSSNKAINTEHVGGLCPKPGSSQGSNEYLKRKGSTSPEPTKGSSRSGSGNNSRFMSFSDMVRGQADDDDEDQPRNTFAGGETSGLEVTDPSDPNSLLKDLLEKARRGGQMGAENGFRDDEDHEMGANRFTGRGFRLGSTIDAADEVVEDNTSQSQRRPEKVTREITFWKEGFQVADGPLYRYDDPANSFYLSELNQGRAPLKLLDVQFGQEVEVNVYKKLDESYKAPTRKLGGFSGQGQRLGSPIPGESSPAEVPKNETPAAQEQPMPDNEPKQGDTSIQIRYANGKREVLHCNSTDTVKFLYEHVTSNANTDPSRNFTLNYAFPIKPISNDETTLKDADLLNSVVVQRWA",
  "assay": "co-IP; yeast lysates; immunoprecipitation with pre-coupled anti-HA antibody (overnight, 4°C), IP buffer 50 mM Tris/HCl pH 7.5, 100 mM KCl, 5 mM MgCl2, NP-40, 10% glycerol; Western blot; for Glc8^3HA lysates of asynchronous or α-factor-arrested wild-type and shp1-7 cells",
  "details": "partners not purified",
  "data": [
    {"binder": "Glc7^3myc (enzyme, S. cerevisiae, UniProt P32598 1-312, looked up, Glc7, catalytic subunit of protein phosphatase 1, S. cerevisiae; carboxyl-terminally tagged at its authentic chromosomal locus; also called PP1 catalytic subunit; source: S. cerevisiae DF5, expressed from the chromosomal GLC7 locus as sole source of Glc7, in lysate; not shown: 3myc, C-terminal, kept) MDSQPVDVDNIIDRLLEVRGSKPGQQVDLEENEIRYLCSKARSIFIKQPILLELEAPIKICGDIHGQYYDLLRLFEYGGFPPESNYLFLGDYVDRGKQSLETICLLLAYKIKYPENFFILRGNHECASINRIYGFYDECKRRYNIKLWKTFTDCFNCLPIAAIIDEKIFCMHGGLSPDLNSMEQIRRVMRPTDIPDVGLLCDLLWSDPDKDIVGWSENDRGVSFTFGPDVVNRFLQKQDMELICRAHQVVEDGYEFFSKRQLVTLFSAPNYCGEFDNAGAMMSVDESLLCSFQILKPAQKSLPRQAGGRKKK", "values": [
      {"measurement": "fold difference of the Glc7 signal in the IP lane (relative to the heavy chain signal) against the negative control", "value": "> 8", "unit": "fold"}
    ]}
  ]
}
